Experimental data reported in US6423500 (SCHERING, dated 2002).

T1: human IL-10 receptor (human, UniProt Q13651 22-578)
T1 construct: Expressed on transfected COS7 cells and Ba/F3 (Ba8.1) cells; The native IL-10 receptor on human cell lines (JY, TF-1, BJAB, Ramos, BH5) is written as this same molecule; also called hIL-10R; human IL-10 receptor component
T1 sequence: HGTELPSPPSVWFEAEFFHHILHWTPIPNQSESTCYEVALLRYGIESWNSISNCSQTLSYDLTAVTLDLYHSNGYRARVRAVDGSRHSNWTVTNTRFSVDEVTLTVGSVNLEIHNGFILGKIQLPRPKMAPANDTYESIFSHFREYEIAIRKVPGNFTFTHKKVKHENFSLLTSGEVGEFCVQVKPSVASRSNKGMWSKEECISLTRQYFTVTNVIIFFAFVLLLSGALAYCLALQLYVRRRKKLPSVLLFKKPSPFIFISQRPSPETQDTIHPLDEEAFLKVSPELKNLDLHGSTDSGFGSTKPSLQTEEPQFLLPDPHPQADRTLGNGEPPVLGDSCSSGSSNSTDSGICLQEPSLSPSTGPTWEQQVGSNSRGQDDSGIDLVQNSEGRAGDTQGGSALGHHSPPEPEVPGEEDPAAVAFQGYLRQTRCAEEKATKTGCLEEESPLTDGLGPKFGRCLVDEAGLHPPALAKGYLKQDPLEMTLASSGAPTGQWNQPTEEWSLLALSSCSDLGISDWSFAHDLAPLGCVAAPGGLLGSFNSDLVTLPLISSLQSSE

T2: mouse IL-10 receptor (mouse, UniProt Q61727 17-575)
T2 construct: Expressed on transfected COS7 cells; the native receptor on mouse cell lines (MC/9, J774, WEHI 265.1) is written as this same molecule; also called mIL-10R; mouse IL-10 receptor component
T2 sequence: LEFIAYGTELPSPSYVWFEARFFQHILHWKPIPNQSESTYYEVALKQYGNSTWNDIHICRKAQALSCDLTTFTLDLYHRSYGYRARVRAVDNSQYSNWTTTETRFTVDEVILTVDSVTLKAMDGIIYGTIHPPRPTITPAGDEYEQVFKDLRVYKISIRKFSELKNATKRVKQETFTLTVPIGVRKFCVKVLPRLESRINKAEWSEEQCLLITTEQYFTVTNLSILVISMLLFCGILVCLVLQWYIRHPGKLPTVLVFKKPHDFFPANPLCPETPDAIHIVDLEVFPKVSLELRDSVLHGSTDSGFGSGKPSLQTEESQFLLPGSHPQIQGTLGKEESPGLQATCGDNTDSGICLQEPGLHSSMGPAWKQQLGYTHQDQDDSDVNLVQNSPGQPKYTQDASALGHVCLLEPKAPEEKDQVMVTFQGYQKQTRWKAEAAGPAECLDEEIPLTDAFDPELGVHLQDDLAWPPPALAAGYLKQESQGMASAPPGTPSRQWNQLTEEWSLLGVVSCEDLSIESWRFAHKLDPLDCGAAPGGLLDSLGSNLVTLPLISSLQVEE

B1: human IL-10 (ligand, UniProt P22301 19-178, looked up)
chain: SPGQGTQSENSCTHFPGNLPNMLRDLRDAFSRVKTFFQMKDQLDNLLLKESLLEDFKGYLGCQALSEMIQFYLEEVMPQAENQDPDIKAHVNSLGENLKTLRLRLRRCHRFLPCENKSKAVEQVKNAFNKLQEKGIYKAMSEFDIFINYIEAYMTMKIRN
modifications: radioiodinated (125I, lactoperoxidase method) where used as labeled ligand; positions not given
notes: mature; Labeled and unlabeled hIL-10 are treated as one molecule; also called hIL-10; human interleukin-10
B2: mouse IL-10 (ligand, UniProt P18893 19-178, looked up)
chain: SRGQYSREDNNCTHFPVGQSHMLLELRTAFSQVKTFFQTKDQLDNILLTDSLMQDFKGYLGCQALSEMIQFYLVEVMPQAEKHGPEIKEHLNSLGEKLKTLRMRLRRCHRFLPCENKSKAVEQVKSDFNKLQDQGVYKAMNEFDIFINCIEAYMMIKMKS
notes: mature; also called mIL-10; murine IL-10

How the values were obtained:
human IL-10 receptor [1] = molecular target: T1, human IL-10 receptor; assay: saturation binding of iodinated hIL-10 to JY cells, Scatchard analysis
Procedure: (§1) Scatchard analysis was performed on the data points obtained using the EBDA Program (Elsevier-Biosoft, Cambridge, U.K.). Antibody inhibition was performed under the above binding conditions but with the addition of a 100-fold molar excess of each of the indicated monoclonal antibodies. Cytokine specificity was determined under similar conditions but with the addition of 500-fold molar excess of the cytokines indicated.

mouse IL-10 receptor [2] = molecular target: T2, mouse IL-10 receptor; assay: saturation binding of iodinated hIL-10 to MC/9 cells, Scatchard analysis (EBDA)
Procedure: as §1

human IL-10 receptor [3] = molecular target: T1, human IL-10 receptor; assay: Scatchard analysis of 125I-hIL-10 binding to Ba8.1 cells, repeat experiments
Source text: (§2) Values for Kd and receptor number were obtained by Scatchard analysis (23, 33, 34).

human IL-10 receptor [4] = molecular target: T1, human IL-10 receptor; assay: Scatchard analysis of 125I-hIL-10 binding to Ba8.1 cells (Ba/F3 expressing hIL-10R), experiment shown
Source text: as §2

human IL-10 receptor [5] = molecular target: T1, human IL-10 receptor; assay: saturation binding of iodinated hIL-10 to JY cells, Scatchard analysis (EBDA)
Procedure: as §1

mouse IL-10 receptor [6] = molecular target: T2, mouse IL-10 receptor; assay: saturation binding of iodinated hIL-10 to COS7 cells transfected with mouse clone m3.14, Scatchard plot
Procedure: (§3) Binding assays were performed. […] For FIGS. 16 and 17, the highest concentration was 1 nM. Background was determined by performing binding at 500-fold molar excess. Points represent averages of duplicates.

[7] = molecular target: IL-10 receptors on JY and MC/9 cells; assay: saturation binding of iodinated hIL-10 to JY and MC/9 cells, several independent experiments
human IL-10 receptor [8] = molecular target: T1, human IL-10 receptor; assay: saturation binding of iodinated hIL-10 to COS7 cells transfected with human clone SW8.1, Scatchard plot
Procedure: as §3

mouse IL-10 receptor [9] = molecular target: T2, mouse IL-10 receptor; assay: FACS competition against FLAG-mIL-10 on MC/9 and J774 cells

Binder	Kd (human IL-10 receptor [1])	Kd (mouse IL-10 receptor [2])	Kd (human IL-10 receptor [3])	Kd (human IL-10 receptor [4])	Kd (human IL-10 receptor [5])	Kd (mouse IL-10 receptor [6])	Kd [7]	Kd (human IL-10 receptor [8])	binding result (mouse IL-10 receptor [9])
B1	~0.15 nM	0.049 nM	0.2 to 0.25 nM	~0.25 nM	0.14 nM	0.083 nM	0.05 to 0.17 nM	0.12 nM	–
B2	–	–	–	–	–	–	–	–	binds
